Measured values: patent publication US20260242478A1 (published 2026)
Where no end group is shown, it is not given here.

B1: Phage-3275 (peptide)
peptide: FDRICKPAWMCIEF
notes: Peptide-180 library clone, tested as clonal M13 phage displaying the peptide fused to pIII
B2: Phage-3287 (peptide)
peptide: ESLLCKPKWMCDWL
notes: Peptide-180 library clone, tested as clonal phage supernatant with the peptide fused to pIII
B3: Phage-3289 (peptide)
peptide: EDYVCRPTWMCVGF
notes: as for B2
B4: Phage-3271 (peptide)
peptide: GGVLCQPAWMCIGF
notes: as for B1
B5: Phage-3277 (peptide)
peptide: PARMCVPAWMCSVL
notes: as for B1
B6: Phage-3270 (peptide)
peptide: LDPMCVPSWMCWGF
notes: as for B1
B7: Phage-3273 (peptide)
peptide: SMGLCKPPWMCAGF
modifications: not fully specified; cysteine pairing not given here
notes: as for B1
B8: Phage-3269 (peptide)
peptide: ISPRCEPLWMCTGL
notes: as for B1
B9: Phage-3282 (peptide)
peptide: MEHWCVPAWMCSGF
notes: as for B2
B10: Phage-3290 (peptide)
peptide: MDVLCRPEWMCTGF
notes: as for B2
B11: Phage-3268 (peptide)
peptide: VEVKCVPEWMCTGF
notes: as for B1
B12: Phage-3288 (peptide)
peptide: VDAYCKPAWMCLGF
notes: as for B2
B13: Phage-3274 (peptide)
peptide: MVVRCEPEWMCIGF
notes: as for B1
B14: Phage-3283 (peptide)
peptide: FDHLCIPVWMCKGF
notes: as for B2
B15: Phage-3267 (peptide)
peptide: LPYMCTPIWMCIGF
notes: as for B1
B16: Phage-3279 (peptide)
peptide: GEPWCIPSWMCQGF
notes: as for B1
B17: Phage-3286 (peptide)
peptide: PTLRCEPLWMCAGF
notes: as for B2
B18: Phage-3276 (peptide)
peptide: EFQMCVPEWMCTGL
notes: as for B1
B19: Phage-3280 (peptide)
peptide: WNHVCIPTWMCTGM
notes: as for B1
B20: Phage-3285 (peptide)
peptide: FDTYCKPAWMCEGF
notes: as for B2
B21: Phage-3284 (peptide)
peptide: ELQRCIPQWMCVGL
notes: as for B2
B22: Phage-3272 (peptide)
peptide: INAWCIPAWMCEGF
notes: as for B1
B23: Phage-3278 (peptide)
peptide: LPPMCIPQWMCMHF
notes: as for B1
B24: Phage-3281 (peptide)
peptide: VERMCKPEWMCFGF
notes: Peptide-180 library clone, tested as clonal phage supernatant with the peptide fused to pIII of the bacteriophage

Assays:
PSMA Fab (006 PSMA Fab) [1] = molecular target: T1, PSMA Fab (006 PSMA Fab) (biotinylated for capture on neutravidin plates (site not stated)); assay: phage ELISA as above, wells pre-incubated with PSMA antigen as competitor
T1 construct: also called Anti-PSMA Fab; anti-PSMA Fab

PSMA Fab (006 PSMA Fab) [2] = molecular target: T1, PSMA Fab (006 PSMA Fab); assay: phage ELISA: clonal phage supernatant on biotinylated PSMA Fab captured on neutravidin plate, anti-M13-HRP detection
Method: (§1) Clonal phage were harvested as crude supernatants and screened via standard ELISAs. […] Prior to the addition of clonal phage. wells were incubated with blocking buffer and PSMA antigen or blocking buffer alone. Without washing or aspirating, clonal phage supernatants were then added to the wells and incubated for a short time. Wells were then washed followed by detection of bound phage using a horse radish conjugated anti-M13 antibody.

PSMA Fab [3] = molecular target: T2, PSMA Fab; assay: clonal phage ELISA; biotinylated PSMA Fab on neutravidin plate; anti-M13 HRP detection
T2 construct: also called Anti-PSMA Fab; 006 PSMA Fab
Method: as §1

PSMA Fab [4] = molecular target: T2, PSMA Fab; assay: clonal phage ELISA; biotinylated PSMA Fab on neutravidin plate, wells pre-incubated with PSMA antigen as competitor; anti-M13 HRP detection;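 also: crude clonal phage supernatants added to antigen-treated wells without a wash, incubated briefly, then bound phage read out via horse radish–conjugated anti-M13 antibody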
Method: as §1

PSMA Fab [5] = molecular target: T3, PSMA Fab (biotinylated (site not stated)); assay: phage ELISA on captured PSMA Fab pre-incubated with PSMA antigen as competitor, anti-M13-HRP detection
T3 construct: also called Anti-PSMA Fab; 006 PSMA Fab

PSMA Fab [6] = molecular target: T3, PSMA Fab; assay: phage ELISA: clonal phage on biotinylated PSMA Fab captured on neutravidin, anti-M13-HRP detection, blocking buffer alone
Method: as §1

PSMA Fab (006 PSMA Fab) [7] = molecular target: T4, PSMA Fab (006 PSMA Fab); assay: phage ELISA; biotinylated PSMA Fab on neutravidin plate, clonal phage supernatant, anti-M13 HRP; blocking buffer alone
T4 construct: also called Anti-PSMA Fab; anti-PSMA Fab
Method: as §1

PSMA Fab (006 PSMA Fab) [8] = molecular target: T4, PSMA Fab (006 PSMA Fab); assay: phage ELISA; biotinylated PSMA Fab on neutravidin plate pre-incubated with PSMA antigen as competitor, clonal phage supernatant, anti-M13 HRP
Method: as §1

Binder	Phage binding ELISA signal, Anti-PSMA Fab in presence of PSMA (PSMA Fab (006 PSMA Fab) [1])	Phage binding ELISA signal, Anti-PSMA Fab (PSMA Fab (006 PSMA Fab) [2])	Phage binding ELISA signal, Anti-PSMA Fab (PSMA Fab [3])	Phage binding ELISA signal, Anti-PSMA Fab in presence of PSMA (PSMA Fab [4])	also measured
B1	0.0573	1.9			
SIPKCMPEWMCIGL [Phage-3253]			1.93	0.0587	
B2					Phage binding ELISA signal, Anti-PSMA Fab with PSMA antigen (PSMA Fab [5]): 0.0996; Phage binding ELISA signal, Anti-PSMA Fab (PSMA Fab [6]): 1.89
B3					Phage binding ELISA signal, Anti-PSMA Fab with PSMA antigen (PSMA Fab [5]): 0.0755; Phage binding ELISA signal, Anti-PSMA Fab (PSMA Fab [6]): 1.89
GVIACKPHWMCTGF [Phage-3251]					Phage binding ELISA signal, Anti-PSMA Fab (PSMA Fab (006 PSMA Fab) [7]): 1.93; Phage binding ELISA signal, Anti-PSMA Fab with PSMA antigen (PSMA Fab (006 PSMA Fab) [8]): 0.085
VTHSCVPAWMCVGL [Phage-3248]					Phage binding ELISA signal, Anti-PSMA Fab (PSMA Fab (006 PSMA Fab) [7]): 1.93; Phage binding ELISA signal, Anti-PSMA Fab with PSMA antigen (PSMA Fab (006 PSMA Fab) [8]): 0.091
B4	0.0804	1.9			
B5	0.0732	1.9			
PTPVCKPGWMCDLF [Phage-3261]			1.92	0.0845	
ENVRCEPMWMCKGF [Phage-3260]			1.92	0.0648	
B6	0.0992	1.9			
YGALCVPAWMCSGF [Phage-3254]			1.93	0.0866	
B7	0.0756	1.9			
VSIVCVPEWMCSGF [Phage-3262]			1.92	0.0721	
B8	0.0836	1.91			
EIMLCKPEWMCYGF [Phage-3265]			1.91	0.0998	
B9					Phage binding ELISA signal, Anti-PSMA Fab with PSMA antigen (PSMA Fab [5]): 0.264; Phage binding ELISA signal, Anti-PSMA Fab (PSMA Fab [6]): 1.89
B10					Phage binding ELISA signal, Anti-PSMA Fab with PSMA antigen (PSMA Fab [5]): 0.0971; Phage binding ELISA signal, Anti-PSMA Fab (PSMA Fab [6]): 1.89
IVPWCKPAWMCAVS [Phage-3255]			1.93	0.12	
B11	0.0868	1.91			
B12					Phage binding ELISA signal, Anti-PSMA Fab with PSMA antigen (PSMA Fab [5]): 0.0998; Phage binding ELISA signal, Anti-PSMA Fab (PSMA Fab [6]): 1.89
B13	0.0649	1.9			
DGFICRPEWMCQWL [Phage-3256]			1.93	0.0653	

Binder	Phage binding ELISA signal, Anti-PSMA Fab in presence of PSMA (PSMA Fab (006 PSMA Fab) [1])	Phage binding ELISA signal, Anti-PSMA Fab (PSMA Fab (006 PSMA Fab) [2])	Phage binding ELISA signal, Anti-PSMA Fab (PSMA Fab [3])	Phage binding ELISA signal, Anti-PSMA Fab in presence of PSMA (PSMA Fab [4])	also measured
GLALCKPAWMCQGF [Phage-3247]					Phage binding ELISA signal, Anti-PSMA Fab (PSMA Fab (006 PSMA Fab) [7]): 1.93; Phage binding ELISA signal, Anti-PSMA Fab with PSMA antigen (PSMA Fab (006 PSMA Fab) [8]): 0.0706
EENFCVPKWMCEGF [Phage-3264]			1.91	0.126	
B14					Phage binding ELISA signal, Anti-PSMA Fab with PSMA antigen (PSMA Fab [5]): 0.0828; Phage binding ELISA signal, Anti-PSMA Fab (PSMA Fab [6]): 1.89
B15	0.143	1.91			
B16	0.091	1.9			
FFKMCIPEWMCSGF [Phage-3263]			1.91	0.205	
AEMRCIPQWMCSGL [Phage-3259]			1.92	0.138	
EYQVCKPTWMCTGF [Phage-3266]			1.91	0.0904	
B17					Phage binding ELISA signal, Anti-PSMA Fab with PSMA antigen (PSMA Fab [5]): 0.0911; Phage binding ELISA signal, Anti-PSMA Fab (PSMA Fab [6]): 1.89
B18	0.0838	1.9			
MPMHCVPSWMCEGF [Phage-3252]					Phage binding ELISA signal, Anti-PSMA Fab (PSMA Fab (006 PSMA Fab) [7]): 1.93; Phage binding ELISA signal, Anti-PSMA Fab with PSMA antigen (PSMA Fab (006 PSMA Fab) [8]): 0.0901
B19	0.0817	1.9			
B20					Phage binding ELISA signal, Anti-PSMA Fab with PSMA antigen (PSMA Fab [5]): 0.0818; Phage binding ELISA signal, Anti-PSMA Fab (PSMA Fab [6]): 1.89
B21					Phage binding ELISA signal, Anti-PSMA Fab with PSMA antigen (PSMA Fab [5]): 0.0731; Phage binding ELISA signal, Anti-PSMA Fab (PSMA Fab [6]): 1.89
QDIVCRPSWMCHGF [Phage-3246]					Phage binding ELISA signal, Anti-PSMA Fab (PSMA Fab (006 PSMA Fab) [7]): 1.94; Phage binding ELISA signal, Anti-PSMA Fab with PSMA antigen (PSMA Fab (006 PSMA Fab) [8]): 0.0762
NVPVCIPDWMCVGF [Phage-3250]					Phage binding ELISA signal, Anti-PSMA Fab (PSMA Fab (006 PSMA Fab) [7]): 1.93; Phage binding ELISA signal, Anti-PSMA Fab with PSMA antigen (PSMA Fab (006 PSMA Fab) [8]): 0.0851
LGNLCVPPWMCQGF [Phage-3257]			1.92	0.241	
B22	0.137	1.9			
B23	0.0592	1.9			
MMHNCIPYWMCAGF [Phage-3249]					Phage binding ELISA signal, Anti-PSMA Fab (PSMA Fab (006 PSMA Fab) [7]): 1.93; Phage binding ELISA signal, Anti-PSMA Fab with PSMA antigen (PSMA Fab (006 PSMA Fab) [8]): 0.101
QPGYCVPQWMCMGF [Phage-3258]			1.92	0.0948	
B24					Phage binding ELISA signal, Anti-PSMA Fab with PSMA antigen (PSMA Fab [5]): 0.102; Phage binding ELISA signal, Anti-PSMA Fab (PSMA Fab [6]): 1.9
